According to PMC9029856, “Impact of Different [Tc(N)PNP]-Scaffolds on the Biological Properties of the Small cRGDfK Peptide: Synthesis, In Vitro and In Vivo Evaluations” (Molecules, 2022):
Several values for one entry are separate records, joined by “and”; a condition that tells them apart may be missing. Equal values may be shown once. Read-outs that look alike come from different tables or passages of the source.

Experiments:
[1] = format: physicochemical
Description: To explore the impact of the PNP ligand on the lipophilicity of the complexes, Log Ps in a mixture of n-octanol and PBS were determined. The lipophilicity decreased in the order ^99mTc1 > ^99mTc2 > ^99mTc3. The lipophilic character of each compound correlated well with the corresponding HPLC retention time and protein binding behavior.
Determination of log P values. n-Octanol/PBS partition coefficients were determined by vortex mixing (20 min) 3.0 mL of n-octanol, 3.0 mL of PBS and 100 µL of the radiolabeled compound purified as above. After centrifugation (3000 g for 10 min), aliquots (100 µL) of both the organic and the aqueous phases were collected and counted with a γ-counter.

[2] = design: species or system Sprague Dawley rats; details: rat, in vivo, iv, 15 uCi/100 uL
Description: Pharmacokinetics and metabolism.
Female Sprague Dawley rats weighing 180–200 g were anesthetized with an intraperitoneal injection of a mixture of Zoletil (40 mg/kg) and xylazine (2 mg/kg). A jugular vein was surgically exposed, and the solution containing the radiolabeled peptide was injected (15 µCi/100 µL). The rats (n = 3) were scarified by cervical dislocation at different times after injection. The blood was withdrawn from the heart with a syringe immediately after death and quantified. Organs were excised, rinsed in saline, weighed, and the activity was counted in a NaI counter. The results were expressed as the percentage of injected activity per gram of tissue (%IA/g) to be able to compare our results with those reported in the literature.

[3] = design: species or system Sprague Dawley rats; details: rat, in vivo
Description: As expected, MRT values of liver and kidneys were much higher than the dose of stomach, spleen, lung, and heart.
The time–activity curves of the main organs were obtained using the biodistribution data (%IA/organ) as input for the CoKiMo spreadsheet software. Then, the organ mean residence times (MRT) were computed by integration of the organ activity curves, extrapolated until 5 half-lives of Tc-99m (30 h) and corrected for its physical decay, to evaluate the pharmacokinetic profile of each radiolabeled peptide.

[4] = tested on: M21 (αvβ3-positive) and M21L (αvβ3-negative) melanoma tumors; format: in vivo, NSG mice; details: 120 min p.i.
Description: In vivo tumor uptake. The in vivo integrin targeting properties of the [^99mTcN(PNP)]-labeled peptide were evaluated in M21 (integrin-positive) and M21L (integrin-negative) melanoma-bearing mice by comparing the percentage of tumor uptake of the three compounds in tumors and the respective target-to-non-target ratios. Biodistribution data outlined some differences in organ uptake compared with those attained in rats at the same injection time because the rate of metabolism is different in each animal species. […] The high renal uptake of radiotracers is partially due to their rate of excretion as well as to a specific uptake by integrins expression in the kidneys; for ^99mTc3, the M21-to-kidney ratio was 1.37.
Human melanoma M21(αvβ3-positive) were injected subcutaneously (s.c. 1 × 10^6 cells) in the right flank of six week-old male NSG mice (Charles River Laboratories). As a negative control, M21L (αvβ3-negative) were inoculated s.c. (1 × 10^6 cells) in the left flank of the same mice. Fifteen days after the inoculation, when the tumors are palpable (5–3 mm), the mice were injected in the tail vein with the selected radiolabeled peptide (20 µCi/100 µL of PBS). A group of six animals was sacrificed at 120 min p.i. by CO2 inhalation. A sample of blood was collected and tumors and normal tissues of interest were dissected, rinsed to remove the excess of blood, weighted, and their radioactivity measured using a NaI counter. Results are expressed as the percentage of injected activity per gram (% IA/g) and tumor-to-organ ratios were calculated.

serum proteins = format: in vitro ADME
Description: Thus, to have some predictive indications of the metabolic outcome of our compounds, the binding to serum proteins and the enzymatic biotransformation of ^99mTc1–3 in blood and tissue homogenates were assessed in vitro by incubating the purified compounds at 37 °C in human and mouse sera as well as in murine liver and kidney homogenates.
Protein Binding. The affinity of the ^99mTc(N) complexes toward the serum proteins was evaluated by chromatographic methods.
Upon incubation, 25 µL of each sample was withdrawn and loaded on a pre-spun (735× g for 2 min) Sephadex G-50 mini-column. The column was centrifuged at 735 × g for 1 min. The collected eluate and the column were counted in a NaI-scintillation counter. The protein-bound complex was calculated as the percentage of the total activity.

Substance: [Tc(N)(H2NS-cRGDfK)(PNP43)]^+ [^99mTc2]
- Log P [1]: −1.95
- Blood ([2]; 0.5 h): 0.65 ± 0.04 %IA/g
- Heart ([2]; 0.5 h): 0.30 ± 0.01 %IA/g
- Intestine ([2]; 0.5 h): 1.19 ± 0.14 %IA/g
- Kidneys ([2]; 0.5 h): 6.77 ± 0.86 %IA/g
- Liver ([2]; 0.5 h): 0.90 ± 0.13 %IA/g
- Lungs ([2]; 0.5 h): 0.82 ± 0.09 %IA/g
- Muscle ([2]; 0.5 h): 0.22 ± 0.03 %IA/g
- Spleen ([2]; 0.5 h): 0.47 ± 0.02 %IA/g
- Stomach ([2]; 0.5 h): 0.82 ± 0.07 %IA
- Urine ([2]; 0.5 h): 17.7 ± 3.6 %IA
- Blood ([2]; 1 h): 0.35 ± 0.07 %IA/g
- Heart ([2]; 1 h): 0.20 ± 0.04 %IA/g
- Intestine ([2]; 1 h): 1.69 ± 0.17 %IA/g
- Kidneys ([2]; 1 h): 6.20 ± 0.68 %IA/g
- Liver ([2]; 1 h): 0.73 ± 0.01 %IA/g
- Lungs ([2]; 1 h): 0.56 ± 0.10 %IA/g
- Muscle ([2]; 1 h): 0.14 ± 0.03 %IA/g
- Spleen ([2]; 1 h): 0.40 ± 0.05 %IA/g
- Stomach ([2]; 1 h): 0.64 ± 0.08 %IA
- Urine ([2]; 1 h): 28.5 ± 4.6 %IA
- Blood ([2]; 2 h): 0.19 ± 0.04 %IA/g
- Heart ([2]; 2 h): 0.15 ± 0.06 %IA/g
- Intestine ([2]; 2 h): 1.94 ± 0.25 %IA/g
- Kidneys ([2]; 2 h): 5.51 ± 0.42 %IA/g
- Liver ([2]; 2 h): 0.57 ± 0.03 %IA/g
- Lungs ([2]; 2 h): 0.42 ± 0.02 %IA/g
- Muscle ([2]; 2 h): 0.12 ± 0.01 %IA/g
- Spleen ([2]; 2 h): 0.38 ± 0.04 %IA/g
- Stomach ([2]; 2 h): 0.51 ± 0.08 %IA
- Urine ([2]; 2 h): 41.5 ± 4.5 %IA
- Blood ([2]; 4 h): 0.11 ± 0.02 %IA/g
- Heart ([2]; 4 h): 0.12 ± 0.01 %IA/g
- Intestine ([2]; 4 h): 1.90 ± 0.19 %IA/g
- Kidneys ([2]; 4 h): 4.27 ± 0.31 %IA/g
- Liver ([2]; 4 h): 0.52 ± 0.07 %IA/g
- Lungs ([2]; 4 h): 0.34 ± 0.04 %IA/g
- Muscle ([2]; 4 h): 0.09 ± 0.00 %IA/g
- Spleen ([2]; 4 h): 0.34 ± 0.07 %IA/g
- Stomach ([2]; 4 h): 0.41 ± 0.09 %IA
- Urine ([2]; 4 h): 43.5 ± 3.4 %IA
- MRT Blood [3]: 16.9 min
- MRT Heart [3]: 0.4 min
- MRT Kidney [3]: 30.7 min
- MRT Liver [3]: 25.9 min
- MRT Lung [3]: 1.6 min
- MRT Spleen [3]: 0.8 min
- MRT Stomach [3]: 2.1 min
- M21/M21L ratio [4]: 2.57
- M21/blood ratio [4]: 11.26
- M21/kidneys ratio [4]: 0.32
- M21/liver ratio [4]: 0.44
- M21/lung ratio [4]: 1.04
- M21/muscle ratio [4]: 3.54
- M21L tumor uptake ([4]; integrin-negative M21L control tumor): 0.42 ± 0.05 %IA/g
- M21 tumor uptake ([4]; integrin-positive M21 xenograft): 1.1 ± 0.2 %IA/g and 1.08 ± 0.24 %IA/g
- Blood ([4]; tumor-bearing mice): 0.12 ± 0.03 %IA/g
- Heart ([4]; tumor-bearing mice): 0.48 ± 0.07 %IA/g
- Intestine ([4]; tumor-bearing mice): 2.45 ± 0.29 %IA/g
- Kidneys ([4]; tumor-bearing mice): 3.38 ± 0.36 %IA/g
- Liver ([4]; tumor-bearing mice): 2.43 ± 0.23 %IA/g
- Lungs ([4]; tumor-bearing mice): 1.04 ± 0.08 %IA/g
- Muscle ([4]; tumor-bearing mice): 0.31 ± 0.05 %IA/g
- Spleen ([4]; tumor-bearing mice): 1.26 ± 0.04 %IA/g
- Stomach ([4]; tumor-bearing mice): 1.02 ± 0.16 %IA
- % Protein Binding (serum proteins): 13.63 ± 2.95%
